Reference: IntAct's records for PubMed 29340707

B1: Serine/threonine-protein kinase VRK1 (Homo sapiens), Q99986 (parent)
chain: MPRVKAAQAGRQSSAKRHLAEQFAVGEIITDMAKKEWKVGLPIGQGGFGCIYLADMNSSESVGSDAPCVVKVEPSDNGPLFTELKFYQRAAKPEQIQKWIRTRKLKYLGVPKYWGSGLHDKNGKSYRFMIMDRFGSDLQKIYEANAKRFSRKTVLQLSLRILDILEYIHEHEYVHGDIKASNLLLNYKNPDQVYLVDYGLAYRYCPEGVHKEYKEDPKRCHDGTIEFTSIDAHNGVAPSRRGDLEILGYCMIQWLTGHLPWEDNLKDPKYVRDSKIRYRENIASLMDKCFPEKNKPGEIAKYMETVKLLDYTEKPLYENLRDILLQGLKAIGSKDDGKLDLSVVENGGLKAKTITKKRKKEIEESKEPGVEDTEWSNTQTEEAIQTRSRTRKRVQK

Variants of: B1
Settings: with aurkb_human AURKB

effect of a mutation on the interaction | Variant
increasing interaction strength | K179E

Variants of: B1
Settings: with aurkb_human AURKB
Remark: another data set of the same source

effect of a mutation on the interaction | Variant
disrupting interaction strength | K179E
